Assay: yeast display, Sf9 membrane polyspecificity reagent, FACS + sequencing; frameworks hold sequencing errors
Procedure, shortened: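 Galactose-induced (36–48 hours) yeast carrying a synthetic nanobody display library were exposed to 10% biotinylated, detergent-solubilized Sf9 membrane reagent at 4 °C for 1 hour. FACS followed streptavidin microbead enrichment, using low and high (top ~1%) gates for expression (anti-HA) and reagent binding (streptavidin). Colony PCR, MiSeq 2 × 250 sequencing and CDR-length filtering followed. Labels for polyreactivity reflect the gate of origin.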

Q: For “QVQLVESGGGLVQAGGSLRLSCAASGLIFYGNAMGWYRQAPGKERELVAAISWSGGNTSYADSVKGRFTISRDNAKNTVYLQMNSLKPEDTAVYYCAVDNTGRSWPYDYWGQGTQVTVSS”, which “polyreactivity (PSR sort gate)” value is on record?
A: low polyreactivity

Q: Which “polyreactivity (PSR sort gate)” value does the source give for “QVQLVESGGGLVQAGGSLRLSCAASGLIFYKNAMGSYRQAPGKEREFVAAISRSGASTYYSDSVMGRFTISRDYAKNTVYLQMKSLKPEVTEVYLCAARAGANYRMDYWGQGTQVTVSS” here?
A: high polyreactivity

Q: For “QVQLVESGGGLVQAGGSLRLSCAASGLIFYRNAMGWYRQAPGKERELVAAIRFSTGSTYYADSVKGRFTISRDNAKNTVYLEMNSLKPEDTAVYYCAAALPGYGDYYYWGQGTQVTVSS”, which “polyreactivity (PSR sort gate)” value is on record?
A: high polyreactivity

Q: With “QVQLVESGGGLVQAGGSLRLSCAASGLIFYRYAMGWYRQAPGKERELVAAISRRGGSTYYADSVKGRFTISRDNAKNTVYLQMNRLKAEETAVYYCAARLPGYYGIGDYWGQGTQVTVSS” as the sequence, how does the “polyreactivity (PSR sort gate)” value read?
A: high polyreactivity

Q: Which “polyreactivity (PSR sort gate)” value does the source give for “QVQLVESGGGLVQAGGSLRLSCAASGLIFYRYAMGWYRQAPGKERELVADISWSGGTTYYADSVKGRFTISRDNAKNTVYLQMNSLKPEDTAVYYCAARSVPSPERGFYYWGQGTQVTVSS” here?
A: high polyreactivity

Q: With “QVQLVESGGGLVQAGGSLRLSCAASGLIFYRYTMGWNRQAPGKERELVAGITSGGRTYYADSVKGRFTISRDNAKNTFYLQMNSLKPEDTAVYYCAARYFPARTRYYYWGQGTQVTVSS” as the sequence, how does the “polyreactivity (PSR sort gate)” value read?
A: high polyreactivity

Q: For “QVQLVESGGGLVQAGGSLRLSCAASGLIFYSYAMGWYRQAPGKERELVAAINGGGGSTYYADSVKGRFTISRDNAKNTVYFQMNSLKPEDTAVSYCAAPYYRLTGWSRYDYWGQGTQVTVSS”, which “polyreactivity (PSR sort gate)” value is on record?
A: high polyreactivity

Q: With “QVQLVESGGGLVQAGGSLRLSCAASGLIFYWNTMGWYRQAPGKERELVAYISGGGGRTYYADSVKGRFTISRDNAKNTVYLQMNSLKPEDTAVYYCAAKLYGYRSGYYYWGQGTQVTVSS” as the sequence, how does the “polyreactivity (PSR sort gate)” value read?
A: high polyreactivity

Q: With “QVQLVESGGGLVQAGGSLRLSCAASGLIFYYYAMGWYRQAPGKERELVAAITRGGRTYYADSVKGRFTISRDNAKNTVYLQMNSLKPEDTAVYYCAAGWYQGFDYWGQGTQVTVSS” as the sequence, how does the “polyreactivity (PSR sort gate)” value read?
A: high polyreactivity

Q: Which “polyreactivity (PSR sort gate)” value does the source give for “QVQLVESGGGLVQAGGSLRLSCAASGLIFYYYAMGWYRQAPGQERELVAAITSDDRTYYADSVKGRFTISRDNAKNTVYLQMNSLKPEDTAVYYCAARYHGYLPQYRKYGYGYWGQGTQVTVSS” here?
A: high polyreactivity

Q: For “QVQLVESGGGLVQAGGSLRLSCAASGLIFYYYTMGWYRQAPGKERELVARITSSGGRTYYADSVKGRFTISRDNAKNTVYLQMNSLKPEDTAVYYCNARVPRYNGGSTMEYWGQGTQVTVSS”, which “polyreactivity (PSR sort gate)” value is on record?
A: high polyreactivity

Q: With “QVQLVESGGGLVQAGGSLRLSCAASGLIIASYAMGWYRQAPGKERELVAAINTGGSTYYADSVKGRFTISRDNAKNTVYLQMNSLKPEDTAVYYCAARYTGLSYSRYGYWGQGTQVTVSS” as the sequence, how does the “polyreactivity (PSR sort gate)” value read?
A: high polyreactivity

Q: Which “polyreactivity (PSR sort gate)” value does the source give for “QVQLVESGGGLVQAGGSLRLSCAASGLIIPAYAMGWYRQAPGKEREMVATITWRGGSTYYADSVKGRFTISRDNAKNTVYLQMNSLKPEDTAVDYCATRPRYYYFRYDYWGQGSQVTVSS” here?
A: high polyreactivity

Q: Which “polyreactivity (PSR sort gate)” value does the source give for “QVQLVESGGGLVQAGGSLRLSCAASGLIIWLYTLGWYRQAPGKESELVAAIDWSGGSTYYADSVKGRFTISRDNAKNTVYLQMNSLKPEDTAVYYCAADPEPSYRFDYWGQGTQVTVSS” here?
A: low polyreactivity

Q: With “QVQLVESGGGLVQAGGSLRLSCAASGLIIYYNAMGWYRQAPGKERELVAAITSGGSTYYADSVKGRFTISRDNAKNTVYLQMNSLKPEDTAVYYCAAVPASYRYPMYYWGQGTQVTVSS” as the sequence, how does the “polyreactivity (PSR sort gate)” value read?
A: low polyreactivity

Q: Which “polyreactivity (PSR sort gate)” value does the source give for “QVQLVESGGGLVQAGGSLRLSCAASGLILDGYAMGWYRQAPGKERELVAAITRSGGRTYYADSVKGRFTISRDNAKNTVYLQMNSLKPEDTAVYYCAALGWSGRYRYDYWGQGTQVTVSS” here?
A: high polyreactivity

Q: Which “polyreactivity (PSR sort gate)” value does the source give for “QVQLVESGGGLVQAGGSLRLSCAASGLILDYNDMGWYRQAPGKERELVASITGGGSTYYADSVKGRFTISRDNAKNTVYLQMNSLKPEDTAVYYCNADPVGVYGFDLDYWGQGTQVTVSS” here?
A: low polyreactivity

Q: With “QVQLVESGGGLVQAGGSLRLSCAASGLILGSYAMGWYRQAPGKERELVAGISWSGGDTYYADSVKGRFTISRDNAKNTVYLQMNSLKPEDTAVYYCNTGGTFLDWVRRPFGFGYWGQGTQVTVSS” as the sequence, how does the “polyreactivity (PSR sort gate)” value read?
A: low polyreactivity

Q: With “QVQLVESGGGLVQAGGSLRLSCAASGLILGVYTMGWYRQAPGKEREFVASINFGGGSTYYADSVKGRFTISRDNAKNTVYLQMNSLKPEDTAVYYCNARSLGGGTRLYSYDYWGQGTQVTVSS” as the sequence, how does the “polyreactivity (PSR sort gate)” value read?
A: low polyreactivity

Q: With “QVQLVESGGGLVQAGGSLRLSCAASGLILGYYAMGWYRQAPGKERELVATIRRGASTFYADSVKGRFTISRDNAKNTVYLQLNSLKPEDTAVYYCAADTERSLAGGLYYWGQGTQVNVSS” as the sequence, how does the “polyreactivity (PSR sort gate)” value read?
A: low polyreactivity

Q: With “QVQLVESGGGLVQAGGSLRLSCAASGLILHINTMGWYRQAPGKERELVAAISWSGDSTYYSDSVKGRFTISRDNAKNTVYLQKNSLKPDDSAVYYGAADYWYFYTPYSYEYGYWGQGTQVTVSS” as the sequence, how does the “polyreactivity (PSR sort gate)” value read?
A: high polyreactivity

Q: With “QVQLVESGGGLVQAGGSLRLSCAASGLILHKYAMGGSRQAPGKERELVASINSGANTNYADSVKGRFTISRDNAKNTVYLQMNSLKPEDTAVYYCNADPGFRSGDYGYSSFDYWGQGTQVTVSS” as the sequence, how does the “polyreactivity (PSR sort gate)” value read?
A: low polyreactivity

Q: For “QVQLVESGGGLVQAGGSLRLSCAASGLILKYYAMGWYRQAPGKEREFVAAITRRGGITYYADSVKGRFTISRDNAKNTVYLQMNSLKPEDTAVYYCAADPKLGSLAYWRYSYPLYDYWGQGTQVTVSS”, which “polyreactivity (PSR sort gate)” value is on record?
A: low polyreactivity

Q: Which “polyreactivity (PSR sort gate)” value does the source give for “QVQLVESGGGLVQAGGSLRLSCAASGLILSSNTMGWYRQAPGKERELVARIRRNDGNTYYADSVKGRFTISRDNAKNTVYLQMNSLKPEDTAVYYCAQYLAIGYYWGQGTQVTVSS” here?
A: low polyreactivity

Q: Which “polyreactivity (PSR sort gate)” value does the source give for “QVQLVESGGGLVQAGGSLRLSCAASGLILYTYAMGCYRQAPGKERELVAAINSGGRTYYADSVKGRFTISRDNAKNTVYLQMNSLKPEDTAVYYCAADYGSRVRGFNYWGQGTQVTVSS” here?
A: low polyreactivity

Q: With “QVQLVESGGGLVQAGGSLRLSCAASGLILYYYTIGWYRQAPGKERELVAAINSGGNTYYADSVKGRFTISRDNAKNTVYLQMNSLKPEDTAVYYCNAYRVRYKRSYDYWGQGTQVTVSS” as the sequence, how does the “polyreactivity (PSR sort gate)” value read?
A: high polyreactivity

Q: Which “polyreactivity (PSR sort gate)” value does the source give for “QVQLVESGGGLVQAGGSLRLSCAASGLISESYAMGWYRPAPGKERELVAAISSGGSTYYADSVKGRFTISRDNAKNTVYLQMNSLKPEDTAVYYCNASGYKYTYGHAYYYAVDYWGQGTQVTVSS” here?
A: low polyreactivity

Q: Which “polyreactivity (PSR sort gate)” value does the source give for “QVQLVESGGGLVQAGGSLRLSCAASGLISVIYAMGWYRQAPGKERELVAAISWRGANTYYADSVKGRFTISRDNAKNTVYLQMNSLKPEDTAVYYCNAVLYVWFAPYRYDYWGQGTQVTVSS” here?
A: high polyreactivity

Q: With “QVQLVESGGGLVQAGGSLRLSCAASGLMFSYYAMGWYRQAPGKERELVAAISWNGGSTYYADSVKGRFTISRDNAKNTVYLQMNSLKPEDTAVYYCAVRLDLGWYYYWGQGTQVTVSS” as the sequence, how does the “polyreactivity (PSR sort gate)” value read?
A: high polyreactivity

Q: For “QVQLVESGGGLVQAGGSLRLSCAASGLNCKTYTMGWDRQAPGKEREFVAAITTSGGSTYYADSVKGRFTISRDNAKNTVYLQMNSLKPEDTAVYYCDAVWCKSFQGSSYGMNYWGQGTLVTVSS”, which “polyreactivity (PSR sort gate)” value is on record?
A: high polyreactivity

Q: Which “polyreactivity (PSR sort gate)” value does the source give for “QVQLVESGGGLVQAGGSLRLSCAASGLNFRRNAMRWYRQAPGKERELVAVIDRGGRTNYADSVKGRFTISRDNAKTTVYLQMNSLKPEDTAVYYCAKRYASTSGYWGQGTQVTVSS” here?
A: high polyreactivity

Q: For “QVQLVESGGGLVQAGGSLRLSCAASGLPFKSNAMGWYRQAPGKERELVASISKRGGTTYYADSVKGRFTISRDNAKNTVYLQIKSLKPEDTAVYYCAAQSRATTYSWWTGSDYWGQGTEVTVSS”, which “polyreactivity (PSR sort gate)” value is on record?
A: high polyreactivity

Q: For “QVQLVESGGGLVQAGGSLRLSCAASGLSLQYYAMGWYSQAPGKDRELVAAISSRGVSTYYADSVKGRFTISRDNAKNTVYLQMNSLKPEETAVDYCNARQWRFGFVARGGKYNYWGQGTQVTVSS”, which “polyreactivity (PSR sort gate)” value is on record?
A: high polyreactivity

Q: Which “polyreactivity (PSR sort gate)” value does the source give for “QVQLVESGGGLVQAGGSLRLSCAASGLSSLRMLWDGLDRRLGKKGSWLPLITSGGDSTNYADSVKGRFTISRDNAKNTVYLQMNSLKPEDTAVYYCAADLDYPYGYWGQGTQVTVSS” here?
A: low polyreactivity

Q: Which “polyreactivity (PSR sort gate)” value does the source give for “QVQLVESGGGLVQAGGSLRLSCAASGLTCSRYAMGWYRQAPGKERELVASISQGGGSTYYADSVKGRFTISRDNAKNTVYLQMTSLKPEDTAVYYCAASWYYSLQRYGYWGQGTQVTVSS” here?
A: high polyreactivity

Q: Which “polyreactivity (PSR sort gate)” value does the source give for “QVQLVESGGGLVQAGGSLRLSCAASGLTCSYYAMGWYRQAPGQERELVAAISITGSTNYADSVKGRFTISRDNAKNTVYLQMNSLKPEDTAVYYCAARVRSGTGVGFDYWGQGTQVTVSS” here?
A: high polyreactivity

Q: For “QVQLVESGGGLVQAGGSLRLSCAASGLTDVRYAMGWYRQAPGKEREFVAAINWRGTRTYADSVKGRYTISRDNAKNTVYLQMNSLKPEDTAVYYCAARTLYFSKYVYWGQGTQVTVSS”, which “polyreactivity (PSR sort gate)” value is on record?
A: high polyreactivity

Q: Which “polyreactivity (PSR sort gate)” value does the source give for “QVQLVESGGGLVQAGGSLRLSCAASGLTFADYAMGWYRQAPGKERELVAAISSSDTSTYYADSVKGRFTISRDNAKNTVYLQMNSLKPEDTAVYYCAADEGYVWPYYGWGFGKYDYWGQGTQVTVSS” here?
A: low polyreactivity

Q: Which “polyreactivity (PSR sort gate)” value does the source give for “QVQLVESGGGLVQAGGSLRLSCAASGLTFAINTMGLNRQAPGKESELVAAITGSGGSTYYADSVKGRFTISRDNAKYTVYLQMKSLKPEDTAVYYCAAELLYVQGYAMDFWGQGTQVTVSS” here?
A: low polyreactivity

Q: Which “polyreactivity (PSR sort gate)” value does the source give for “QVQLVESGGGLVQAGGSLRLSCAASGLTFARNAMGWYRQAPGKERELVAAISSRGGSTYYADSVKGRFTISRDNAKNTVYLQMNSLKPEDTAVYYCATSQVLRRDRYDYWGQGTQVTVSS” here?
A: high polyreactivity

Q: With “QVQLVESGGGLVQAGGSLRLSCAASGLTFAVYAMGWYRQAPGKVRELVAAITYSGSRTYYADSVKGRFTISRDNAKNTVYLQMNSLKPEVTAVYYCNALYRRDIKFYYWGQGTQVTVSS” as the sequence, how does the “polyreactivity (PSR sort gate)” value read?
A: high polyreactivity

Q: Which “polyreactivity (PSR sort gate)” value does the source give for “QVQLVESGGGLVQAGGSLRLSCAASGLTFAYYAMGWYSQAPGKEREMVASINSGGSTNYADSVKGRFTISRDNAKNTVYLLMNSLKPEDTAVYYCAADWATWWYTYDFWGQGTQVTVSS” here?
A: high polyreactivity

Q: For “QVQLVESGGGLVQAGGSLRLSCAASGLTFAYYVMGWYRQAPGKERELVATITRGGDTNYADSVKGRFTISRDNAKNTVYLQINSLKPEDTAVYYCAAGSYRDRTFAYNYWGQGTQVTVSA”, which “polyreactivity (PSR sort gate)” value is on record?
A: high polyreactivity
